± gives the standard error. Fewer inactive variants are shown than the library holds.
B1: glmS ribozyme (parent)
chain: AUAAAAGCGCCAGAACUACAGAAAUGUAGUUGACGAGGAGGAGGUUUAUCGAAUUUUCGGCGGAUGCCUCCAAA

Key:
Details in all cases: with glucosamine-6-phosphate
glucosamine-6-phosphate [1] = variants of: B1; test: self-cleavage kobs at 40 uM GlcN6P; higher = faster cleavage; RNA array
Method in brief: (§1)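 Weighted Michaelis–Menten fits across concentrations supplied kcat and KM, based on kobs from one- or two-exponential decay fits to normalised per-tile medians. The data came from barcoded ribozyme variants transcribed in situ by E. coli RNA polymerase on sequenced MiSeq chips and tracked at 37 °C by a hybridised Cy3 probe. Glucosamine-6-phosphate (40 μM to 10 mM) in HEPES/KCl/Mg(OAc)2 buffer was flowed in.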

glucosamine-6-phosphate [2] = variants of: B1; test: self-cleavage kobs at 10000 uM GlcN6P; higher = faster cleavage; RNA array
Method in brief: as §1

glucosamine-6-phosphate [3] = variants of: B1; test: self-cleavage kobs at 160 uM GlcN6P; higher = faster cleavage; RNA array
Method in brief: as §1

glucosamine-6-phosphate [4] = variants of: B1; test: self-cleavage kobs at 640 uM GlcN6P; higher = faster cleavage; RNA array
Method in brief: as §1

glucosamine-6-phosphate [5] = variants of: B1; test: self-cleavage kobs at 2500 uM GlcN6P; higher = faster cleavage; RNA array
Method in brief: as §1

| Variant | self-cleavage kobs at 40 uM GlcN6P (glucosamine-6-phosphate [1]) | self-cleavage kobs at 10000 uM GlcN6P (glucosamine-6-phosphate [2]) | self-cleavage kobs at 160 uM GlcN6P (glucosamine-6-phosphate [3]) | self-cleavage kobs at 640 uM GlcN6P (glucosamine-6-phosphate [4]) | self-cleavage kobs at 2500 uM GlcN6P (glucosamine-6-phosphate [5]) |
| --- | --- | --- | --- | --- | --- |
| A36U G40A | < 1e-05 s⁻¹ | < 1e-05 s⁻¹ | – | – | – |
| C50G A52C U69A | 8.7e-05 ± 2.7e-05 s⁻¹ | 4.8e-05 ± 1.6e-05 s⁻¹ | – | – | – |
| U31G G35U | < 1e-05 s⁻¹ | < 1e-05 s⁻¹ | < 1e-05 s⁻¹ | < 1e-05 s⁻¹ | < 1e-05 s⁻¹ |
| A6G U57C C70A C71U | < 1e-05 s⁻¹ | – | < 1e-05 s⁻¹ | – | – |
| G40U U55G | 0.000102 ± 1.4e-05 s⁻¹ | 0.00228 ± 0.00046 s⁻¹ | 0.000149 ± 2.2e-05 s⁻¹ | 0.000543 ± 9.9e-05 s⁻¹ | 0.00142 ± 0.00023 s⁻¹ |
| A12C C34U G44C U56A U57A | < 1e-05 s⁻¹ | < 1e-05 s⁻¹ | – | – | – |
| G9C G41C | < 1e-05 s⁻¹ | < 1e-05 s⁻¹ | < 1e-05 s⁻¹ | < 1e-05 s⁻¹ | < 1e-05 s⁻¹ |
| U31G C71A | 0.000103 ± 1.4e-05 s⁻¹ | 0.00392 ± 0.00068 s⁻¹ | 0.000505 ± 0.00012 s⁻¹ | 0.000376 ± 8.1e-05 s⁻¹ | 0.000715 ± 0.00018 s⁻¹ |
| U30G U56G C58U U69C | < 1e-05 s⁻¹ | – | – | – | – |
| G41A U69A | < 1e-05 s⁻¹ | – | – | < 1e-05 s⁻¹ | – |
| A6G G7C | < 1e-05 s⁻¹ | < 1e-05 s⁻¹ | < 1e-05 s⁻¹ | – | < 1e-05 s⁻¹ |
| A14C G60U C71G | < 1e-05 s⁻¹ | < 1e-05 s⁻¹ | – | – | – |
| A6G G13U | < 1e-05 s⁻¹ | – | < 1e-05 s⁻¹ | < 1e-05 s⁻¹ | – |
| C10U G32U A64C | < 1e-05 s⁻¹ | < 1e-05 s⁻¹ | – | – | – |
| G9A C11A | < 1e-05 s⁻¹ | – | < 1e-05 s⁻¹ | – | – |
| C16G A48G C68U | < 1e-05 s⁻¹ | < 1e-05 s⁻¹ | – | – | – |
| C16G A48C | < 1e-05 s⁻¹ | 4.28e-05 ± 1.7e-05 s⁻¹ | < 1e-05 s⁻¹ | < 1e-05 s⁻¹ | – |
| U30A A33G A48C C67A | < 1e-05 s⁻¹ | < 1e-05 s⁻¹ | – | – | – |
| G43U A48G U65A G66U C70A | < 1e-05 s⁻¹ | – | – | – | – |
| G29A G59U G63A A64U | < 1e-05 s⁻¹ | < 1e-05 s⁻¹ | – | – | – |
| A6U G32C G59A | < 1e-05 s⁻¹ | < 1e-05 s⁻¹ | – | – | – |
| U54G C67A | 0.000326 ± 7.1e-05 s⁻¹ | 0.00623 ± 0.0012 s⁻¹ | 0.000481 ± 9.8e-05 s⁻¹ | 0.000916 ± 0.00018 s⁻¹ | 0.00208 ± 0.00067 s⁻¹ |
| G44A U56C G63A | < 1e-05 s⁻¹ | < 1e-05 s⁻¹ | – | – | – |

| Variant | self-cleavage kobs at 40 uM GlcN6P (glucosamine-6-phosphate [1]) | self-cleavage kobs at 10000 uM GlcN6P (glucosamine-6-phosphate [2]) | self-cleavage kobs at 160 uM GlcN6P (glucosamine-6-phosphate [3]) | self-cleavage kobs at 640 uM GlcN6P (glucosamine-6-phosphate [4]) | self-cleavage kobs at 2500 uM GlcN6P (glucosamine-6-phosphate [5]) |
| --- | --- | --- | --- | --- | --- |
| G60U C70G | < 1e-05 s⁻¹ | < 1e-05 s⁻¹ | – | – | – |
| U49G U57A | < 1e-05 s⁻¹ | – | – | < 1e-05 s⁻¹ | – |
| A42U G43U G60U | < 1e-05 s⁻¹ | – | – | – | – |
| G51A G63U | < 1e-05 s⁻¹ | < 1e-05 s⁻¹ | – | – | – |
| G37C U45C | < 1e-05 s⁻¹ | – | < 1e-05 s⁻¹ | – | – |
| G40A U55G C68G | < 1e-05 s⁻¹ | – | – | – | – |
| U31A G43U | < 1e-05 s⁻¹ | – | < 1e-05 s⁻¹ | – | – |
| G38C G44U | < 1e-05 s⁻¹ | < 1e-05 s⁻¹ | < 1e-05 s⁻¹ | < 1e-05 s⁻¹ | < 1e-05 s⁻¹ |
| G35A A39G U57C | < 1e-05 s⁻¹ | < 1e-05 s⁻¹ | – | – | < 1e-05 s⁻¹ |
| C10A G59C | < 1e-05 s⁻¹ | < 1e-05 s⁻¹ | < 1e-05 s⁻¹ | < 1e-05 s⁻¹ | < 1e-05 s⁻¹ |
| G9U U45G A53G G62U | < 1e-05 s⁻¹ | < 1e-05 s⁻¹ | – | – | – |
| G41A C58G | < 1e-05 s⁻¹ | < 1e-05 s⁻¹ | < 1e-05 s⁻¹ | < 1e-05 s⁻¹ | < 1e-05 s⁻¹ |
| A12C G29A G35C A52U U54A G60U C67G | < 1e-05 s⁻¹ | – | – | – | – |
| G51U G62U | < 1e-05 s⁻¹ | < 1e-05 s⁻¹ | < 1e-05 s⁻¹ | – | – |
| A6G G62C | < 1e-05 s⁻¹ | < 1e-05 s⁻¹ | < 1e-05 s⁻¹ | < 1e-05 s⁻¹ | < 1e-05 s⁻¹ |
| G29C U30G U31A C50U | < 1e-05 s⁻¹ | – | – | < 1e-05 s⁻¹ | – |
| G7A U56C C67U C68U | < 1e-05 s⁻¹ | – | < 1e-05 s⁻¹ | < 1e-05 s⁻¹ | – |
| A6G C8U U54G C68G | 0.000149 ± 5.2e-05 s⁻¹ | 7.88e-05 ± 2.2e-05 s⁻¹ | – | 0.000705 ± 0.00028 s⁻¹ | – |
| G41C C61U | < 1e-05 s⁻¹ | < 1e-05 s⁻¹ | < 1e-05 s⁻¹ | < 1e-05 s⁻¹ | < 1e-05 s⁻¹ |
| C11G G32U | < 1e-05 s⁻¹ | < 1e-05 s⁻¹ | < 1e-05 s⁻¹ | – | – |
| U31C C50G C70U | 7.5e-05 ± 2.8e-05 s⁻¹ | 4.29e-05 ± 1.3e-05 s⁻¹ | 7.9e-05 ± 1.5e-05 s⁻¹ | 7.86e-05 ± 1.6e-05 s⁻¹ | 4.19e-05 ± 1.2e-05 s⁻¹ |
| A42U A48G | < 1e-05 s⁻¹ | – | < 1e-05 s⁻¹ | < 1e-05 s⁻¹ | – |

Source: the supplement of paper PMC7125110
